Test results: article PMC4422728

Target: β-amyloid (Aβ) protein from brains of rTg9191 mice (human)
Experiment: SDS-PAGE and Western blot under denaturing conditions; water-soluble fraction of brain extracts (three-step protocol); samples heated at 95°C with SDS and β-mercaptoethanol, 10-20% Tris-Tricine gels, immunoblot for Aβ; mice of 4, 12, 21, 24 and 26 months

stoichiometry N: 2
Substance: β-amyloid (Aβ) protein from brains of rTg9191 mice (peptide)
